Results reported in patent US20240026330A1 (FLUX THERAPEUTICS, published 2024).

Tests used:
Assay in all cases: cell-based or functional assay
[1] = target: COX6A2-nanoluc-alfa-tag-fusion
[2] = target: T1, UQCC2-nanoluc-alfa-tag-fusion
T1 chain: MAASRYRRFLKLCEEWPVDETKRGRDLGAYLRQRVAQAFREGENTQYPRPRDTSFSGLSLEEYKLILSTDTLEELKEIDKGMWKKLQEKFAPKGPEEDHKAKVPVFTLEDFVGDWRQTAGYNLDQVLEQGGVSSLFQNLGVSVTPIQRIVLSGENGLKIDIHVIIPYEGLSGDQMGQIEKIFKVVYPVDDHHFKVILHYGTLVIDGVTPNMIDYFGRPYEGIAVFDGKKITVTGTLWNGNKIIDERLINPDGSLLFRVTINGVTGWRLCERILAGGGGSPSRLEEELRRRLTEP

[3] = target: T2, LYRM7-nanoluc-alfa-tag-fusion
T2 chain: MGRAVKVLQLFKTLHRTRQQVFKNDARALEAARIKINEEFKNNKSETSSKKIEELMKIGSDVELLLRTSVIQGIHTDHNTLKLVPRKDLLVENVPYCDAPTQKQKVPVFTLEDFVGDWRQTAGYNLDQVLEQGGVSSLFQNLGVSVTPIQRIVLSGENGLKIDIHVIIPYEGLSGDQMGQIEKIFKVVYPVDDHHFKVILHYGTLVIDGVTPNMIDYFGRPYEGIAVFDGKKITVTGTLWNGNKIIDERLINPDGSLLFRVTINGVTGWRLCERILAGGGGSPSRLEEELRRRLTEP

fold increase in COX6A2 protein expression (NLuc signal divided by firefly luciferase signal, relative to control) [1]: 1.48 fold
fold increase in UQCC2 protein expression (NLuc signal divided by firefly luciferase signal, relative to control) [2]: 2.87 fold
fold increase in LYRM7 protein expression (NLuc signal divided by firefly luciferase signal, relative to control) [3]: 1.39 fold
B1: FireflyLuciferase-P2A-a_alfatag_nano-Cezanne (other)
chain: MEDAKNIKKGPAPFYPLEDGTAGEQLHKAMKRYALVPGTIAFTDAHIEVDITYAEYFEMSVRLAEAMKRYGLNTNHRIVVCSENSLQFFMPVLGALFIGVAVAPANDIYNERELLNSMGISQPTVVFVSKKGLQKILNVQKKLPIIQKIIIMDSKTDYQGFQSMYTFVTSHLPPGFNEYDFVPESFDRDKTIALIMNSSGSTGLPKGVALPHRTACVRFSHARDPIFGNQIIPDTAILSVVPFHHGFGMFTTLGYLICGFRVVLMYRFEEELFLRSLQDYKIQSALLVPTLFSFFAKSTLIDKYDLSNLHEIASGGAPLSKEVGEAVAKRFHLPGIRQGYGLTETTSAILITPEGDDKPGAVGKVVPFFEAKVVDLDTGKTLGVNQRGELCVRGPMIMSGYVNNPEATNALIDKDGWLHSGDIAYWDEDEHFFIVDRLKSLIKYKGYQVAPAELESILLQHPNIFDAGVAGLPDDDAGELPAAVVVLEHGKTMTEKEIVDYVASQVTTAKKLRGGVVFVDEVPKGLTGKLDARKIREILIKAKKGGKIAVTRLKGSGATNFSLLKQAGDVEENPGPRSGTGSSGEVQLQESGGGLVQPGGSLRLSCTASGVTISALNAMAMGWYRQAPGERRVMVAAVSERGNAMYRESVQGRFTVTRDFTNKMVSLQMDNLKPEDTAVYYCHVLEDRVDSFHDYWGQGTQVTVSSGAPGSGPPSFSEGSGGSRTPEKGFSDREPTRPPRPILQRQDDIVQEKRLSRGISHASSSIVSLARSHVSSNGGGGGSNEHPLEMPICAFQLPDLTVYNEDFRSFIERDLIEQSMLVALEQAGRLNWWVSVDPTSQRLLPLATTGDGNCLLHAASLGMWGFHDRDLMLRKALYALMEKGVEKEALKRRWRWQQTQQNKESGLVYTEDEWQKEWNELIKLASSEPRMHLGTNGANCGGVESSEEPVYESLEEFHVFVLAHVLRRPIVVVADTMLRDSGGEAFAPIPFGGIYLPLEVPASQCHRSPLVLAYDQAHFSALVSMEQKENTKEQAVIPLTDSEYKLLPLHFAVDPGKGWEWGKDDSDNVRLASVILSLEVKLHLLHSYMNVKWIPLSSDAQAPLAQ
